± gives the uncertainty stated by the source.
Experiment: amyloid nucleation score (Sup35N fusion, yeast selection) (log enrichment); library NNK2; higher = more nucleation; inactive = no reads after selection
How it was run: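 Random libraries were run with three technical output replicates. In each, psi-negative yeast expressing Sup35N fused to peptides of 20 random codons were induced 24 hours with 100 μM copper sulfate and grown 7 days at 30°C on medium lacking adenine and uracil, and input and output plasmid inserts were Illumina-sequenced. The nucleation score is the DiMSum log enrichment of output over input reads, centred on the mode score of non-aggregating sequences, and sequences under 100 input reads were excluded.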

Row | Substance | amyloid nucleation score
1 | VANRIMLGSLGMGFVVGSSM | -0.033 ± 0.43
2 | RVLLHSLRKYLIHDCDVYRA | -0.474 ± 0.55
3 | KLPFELKSDDFTCFNWANSR | -0.097 ± 1.1
4 | CWLFNTY | 3.04 ± 0.14
5 | RGRHGASMELESVDKRTVSR | 0.656 ± 0.34
6 | NGGPHRPDSLVWYLEHKMRQ | inactive
7 | CMRVVDGCFYFLDWSGVTDF | -1.55 ± 1.1
8 | FFWSLGSYILHYC | inactive
9 | RIMIIGKYVSRMVFGDSFWG | 6.002 ± 0.049
10 | VKVLSLVFTGMVPMQYSRYA | 11.31 ± 0.049
11 | ERHNAELRHPAQYLEFTTLG | 1.38 ± 0.37
12 | MVNGEVTLGAVCNTYQWACI | 2.66 ± 0.15
13 | ADIAYFRLVMLKHTIYPVHM | 1.82 ± 0.27
14 | LAGCSMSGVVEC | 1.13 ± 0.22
15 | FICCNNSQIRVSFWLRTWYL | 3.39 ± 0.048
16 | AFRFWFHGSMLVAHLSSWYY | 2.88 ± 0.083
17 | KLYLVWPTCGDGCSFGLRAT | -0.194 ± 0.24
18 | SNNWSLDMRRPVFKPPYGEG | -0.744 ± 0.53
19 | DFQIFYFARLFRTV | -0.681 ± 0.79
20 | GCIAIIDWMNLTLFTLLLSS | -0.375 ± 0.76
21 | EFFISVSLNWCKTDCYTDPW | -0.407 ± 0.2
22 | FGLSRL | 0.713 ± 0.74

Row | Substance | amyloid nucleation score
23 | KFCVRVYNYIVDRITSLMKT | 3.22 ± 0.067
24 | SRWLGAKCSSRC | -0.361 ± 0.48
25 | MIDWGVIV | -0.149 ± 0.76
26 | AFNCT | -0.684 ± 0.78
27 | VLSHYIRLHKSLDLSYSNGV | -0.817 ± 0.61
28 | TFLSHEGRGLRCLYYHMMPG | 3.79 ± 0.14
29 | VYFSCFSLWSSYDVIGRWSC | 7.446 ± 0.036
30 | LIKLMGKSLTRDRY | -0.771 ± 1.1
31 | LGNIGRTFMYHS | 1.09 ± 0.27
32 | LLVYAQLYRVWVWF | -0.134 ± 0.22
33 | QVSDVRDLNFWISVTHVEVG | 3.4 ± 0.12
34 | VTPTFCETLVKPLHALHTNC | -1.22 ± 0.62
35 | DGNNVVIWLLWLSANMTGAG | 1.97 ± 0.13
36 | VNSNEVFIYPFTNLNFMML | 5.17 ± 0.087
37 | MRLTTGINF | -1.14 ± 0.76
38 | FALNPAESLHIRYIGLALF | -1.02 ± 0.62
39 | RLVFVFITDG | 2.96 ± 0.054
40 | WFAWYCSSRYRHRR | 3.57 ± 0.087
41 | MDLVSSFRLNVCGT | 0.089 ± 0.5
42 | CSKMLTSNRVC | -0.583 ± 1.1
43 | SYGVLGDLASGTSRTID | -1.25 ± 0.64
44 | YRVNALKQIMLRLKQFCRLA | -0.647 ± 0.64

Row | Substance | amyloid nucleation score
45 | YMLINAMVTFFMHGVDRKRR | 5.516 ± 0.055
46 | HCRKQIMMGDFKIQGNRGVG | 0.448 ± 0.66
47 | PSSDRMSKCVFRVRNCQEAL | 0.157 ± 0.55
48 | WKVCLVYDKTFWHVEVEGES | 0.042 ± 0.8
49 | PRRSNTCWNSCISEMIGIRS | 0.664 ± 0.51
50 | VLATSFNFELGSGRTDLCRV | -0.805 ± 0.46
51 | IKSSAFGAGVQLAAQRSVIT | -0.432 ± 0.29
52 | TWDSRYGVACLV | -0.325 ± 0.33
53 | VRPRGTKRCFFGRNHWRSSF | 0.428 ± 0.66
54 | RYIVILSFVRGSWLYFLTRT | -0.543 ± 0.5
55 | KPWTYDMVCSRFTSMWFCDY | 0.644 ± 0.38
56 | LYVYMCIPLDYLSSRVDSKR | 5.67 ± 0.094
57 | KVMNNIL | -0.093 ± 0.36
58 | TGCNFHGRRFRCGYNGLGNP | -0.59 ± 0.37
59 | SVQVMCQSWPLSPLFAPRHR | 5.92 ± 0.039
60 | TYGWSLFERKLNPRGCWFPN | -0.082 ± 0.63
61 | ILVYASWLGYHLDICSGFRS | 1.64 ± 0.089
62 | CRRRSPTNGGVNVRN | 0.41 ± 0.74
63 | LLIVNCMLANYSFWIQSSGS | 5.968 ± 0.029
64 | DLWTAWSRLHLDGG | 0.431 ± 0.23
65 | TKAYNTFLRPETVRLSESTK | 0.9 ± 0.18
66 | YCYKSCCRDKLY | -0.072 ± 1.1

Row | Substance | amyloid nucleation score
67 | MVPVFTGWRICVGGNCLARR | -0.162 ± 0.34
68 | YYLFGKF | -0.509 ± 1.1
69 | KSCGNGHISDVIYLRGMLGV | -0.538 ± 0.55
70 | VRFEELTEY | -0.171 ± 1
71 | SSWLEVAMTALRSIWYMD | 0.103 ± 0.26
72 | KMSELWFVIKPWFWIMGLEK | -0.403 ± 1.1
73 | AVRTLDNMGLYAWISAKVCR | -0.184 ± 0.79
74 | ASFCNVWGDNVWRYTLLRFK | inactive
75 | WAYAVNPTCYNFVGTGGSCS | 2.44 ± 0.11
76 | CAPYTVLGYGLGTQFHAGEN | 1.8 ± 0.1
77 | NLRNKIVGLTKGLVCRANVV | 2.34 ± 0.091
78 | LFTIVTTFKRS | 6.443 ± 0.056
79 | GKGWKSVVYSNMGRVSGCCK | 2.81 ± 0.12
80 | VWKVVKIRAL | inactive
81 | RGVFAMLTVSYGNS | 5.483 ± 0.043
82 | LSGVGFLDFRPLN | 0.734 ± 0.81
83 | CSRRYSLRL | -0.319 ± 0.54
84 | LNYCHILSMYGNIAIIRSQF | 4.48 ± 0.048
85 | FFYHLCASVRLA | -1.11 ± 0.78
